Laboratory results taken from patent US20190194350A1 (UNIVERSITAT STUTTGART, published 2019).
Values joined by “and” are separate entries in the source; they are usually repeats but may differ in a detail not shown here. Equal values may be shown once.

Experiments:
[1] = target: T1, CD3 on CD3-expressing Jurkat cells (human, UniProt P07766 23-207); test: flow cytometry, CD3-positive Jurkat cells
T1 construct: whole, on cells; also called human CD3

[2] = target: T1, CD3 on CD3-expressing Jurkat cells; test: flow cytometry, CD3-expressing Jurkat cells
[3] = target: T2, HER3 on HER3-expressing tumor cells (human, UniProt P21860 20-1342); test: flow cytometry, HER3-expressing MCF-7 cells
T2 construct: Endogenous HER3 of human tumor cell lines (MCF-7, FaDu, BT474, A431, NCI-N87, A549, SKBR-3, Colo205, HCT-116, A375 and melanoma lines); also called cellular receptor HER3; cell surface expressed HER3

[4] = target: T2, HER3 on HER3-expressing tumor cells; test: cell-based or functional assay
[5] = target: T3, HER3-Fc fusion comprising the extracellular domain (aa 27-599) of human HER3 (human, UniProt P21860 27-599); test: ELISA, coated HER3-Fc (aa 27-599), anti-His-HRP
T3 construct: also called HER3-Fc fusion protein; not shown: Fc part

[6] = target: T4, mouse HER3-Fc fusion protein (extracellular region of mouse HER3 fused to a human Fc region) (mouse, UniProt Q61526 20-641); test: ELISA, immobilized mouse HER3 extracellular region fused to human Fc, scFv detected with anti-His-tag antibody
T4 construct: extracellular domain; not shown: human Fc region

HER2-ECD protein = target: T5, HER2-ECD protein (UniProt P04626 23-652, limits assumed); test: ELISA, immobilized HER2-ECD
T5 construct: extracellular domain

EGFR on tumor cells [7] = target: T6, EGFR on tumor cells (human, UniProt P00533 25-1210); test: flow cytometry, SKBR-3 cells (carry EGFR and HER3; bispecific, number not split between the two targets); SKBR-3 cells (EGFR and HER3 in similar ranges)
T6 construct: whole, on cells; also called EGFR on FaDu and SKBR-3 cells

[8] = target: T2, HER3 on HER3-expressing tumor cells; test: as above
[9] = target: T7, HER3-His (HER3 aa 27-599 of the extracellular domain fused C-terminally with a hexahistidyl-tag) (human, UniProt P21860 27-599); test: ELISA, coated His-tagged HER3 ECD (aa 27-599)
T7 construct: also called soluble His-tagged HER3; His-tagged extracellular domain of HER3; not shown: C-terminal hexahistidyl-tag

[10] = target: T2, HER3 on HER3-expressing tumor cells; test: flow cytometry, HER3-positive MCF-7 cells; MCF-7 cells
[11] = target: T7, HER3-His (HER3 aa 27-599 of the …); test: sandwich ELISA: coated EGFR-Fc, serial dilution of Db3-43xhu225-Ig, then 300 nM HER3-His detected by anti-His-HRP
EGFR on tumor cells [12] = target: T6, EGFR on tumor cells; test: flow cytometry, FaDu cells (very high EGFR, low HER3; the filing says binding is most likely through the hu225 moieties); FaDu cells

T1 sequence (P07766 23-207): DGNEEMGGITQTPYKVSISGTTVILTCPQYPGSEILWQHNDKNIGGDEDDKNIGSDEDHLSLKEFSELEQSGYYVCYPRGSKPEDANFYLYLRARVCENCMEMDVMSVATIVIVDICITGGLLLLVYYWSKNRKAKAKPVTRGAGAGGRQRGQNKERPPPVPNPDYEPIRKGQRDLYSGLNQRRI
T4 sequence (Q61526 20-641): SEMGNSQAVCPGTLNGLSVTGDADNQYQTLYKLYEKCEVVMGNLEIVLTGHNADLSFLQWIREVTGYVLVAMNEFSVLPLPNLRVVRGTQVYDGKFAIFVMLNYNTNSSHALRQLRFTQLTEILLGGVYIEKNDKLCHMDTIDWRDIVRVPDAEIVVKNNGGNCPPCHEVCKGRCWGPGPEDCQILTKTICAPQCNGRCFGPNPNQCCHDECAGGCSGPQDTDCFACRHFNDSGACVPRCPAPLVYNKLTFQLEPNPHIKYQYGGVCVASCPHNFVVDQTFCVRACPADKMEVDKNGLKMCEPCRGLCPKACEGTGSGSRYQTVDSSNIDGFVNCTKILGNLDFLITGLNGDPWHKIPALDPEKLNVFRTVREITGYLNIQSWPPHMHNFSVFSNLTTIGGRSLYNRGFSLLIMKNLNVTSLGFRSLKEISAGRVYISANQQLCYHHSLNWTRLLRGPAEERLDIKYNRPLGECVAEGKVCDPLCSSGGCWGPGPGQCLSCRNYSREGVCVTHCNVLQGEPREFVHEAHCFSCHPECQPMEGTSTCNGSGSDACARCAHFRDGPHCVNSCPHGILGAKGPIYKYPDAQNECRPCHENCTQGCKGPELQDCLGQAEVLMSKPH

B1: scDb 3-43xCD3 (bispecific antibody)
chain: QLQQSGPGLVKPSQTLSLTCAISGDSVSSNRAAWNWIRQSPSRGLEWLGRTYYRSKWYNDYAQSLKSRITINPDTPKNQFSLQLNSVTPEDTAVYYCARDGQLGLDALDIWGQGTMVTVSSGGGGSDIQMTQSPSSLSASVGDRVTITCRASQDIRNYLNWYQQKPGKAPKLLIYYTSRLHSGVPSRFSGSGSGTDFTFTISSLQPEDIATYYCQQGNTLPWTFGQGTKLEIKRGGGGSGGGGSGGGGSQVQLVQSGAEVKKPGSSVKVSCKASGGTFSGYTMNWVRQAPGQGLEWMGLINPYKGVSTYNGKFKDRVTITADKSTSTAYMELSSLRSEDTAVYYCARSGYYGDSDWYFDVWGQGTLVTVSSGGGGSQAGLTQPPAVSVAPGQTASITCGRDNIGSRSVHWYQQKPGQAPVLVVYDDSDRPAGIPERFSGSNYENTATLTISRVEAGDEADYYCQVWGITSDHVVFGGGTKLTVLAAAHHHHHH
notes: also called scDb3-43xhuU3
For B1, the EC50 [1] was 2.4 nM, the EC50 [2] was 3.1 nM and the EC50 [3] was 1.1 nM. For the same binder, the “IL-2 release of PBMC with HER3-expressing Colo205 cells (EC50)” value [4] was 0.3 nM, the “IL-2 release of PBMC with HER3-expressing MCF-7 cells (EC50)” value [4] was 0.48 nM and the “killing of MCF-7 cells by PBMC, MTT assay (EC50)” value [4] was 0.084 nM. The EC50 [5] was 3.3 nM and 4.87 nM.

B2: scDb3-43xCD3-scFv3-43 (bispecific antibody)
chain: QLQQSGPGLVKPSQTLSLTCAISGDSVSSNRAAWNWIRQSPSRGLEWLGRTYYRSKWYNDYAQSLKSRITINPDTPKNQFSLQLNSVTPEDTAVYYCARDGQLGLDALDIWGQGTMVTVSSGGGGSDIQMTQSPSSLSASVGDRVTITCRASQDIRNYLNWYQQKPGKAPKLLIYYTSRLHSGVPSRFSGSGSGTDFTFTISSLQPEDIATYYCQQGNTLPWTFGQGTKLEIKRGGGGSGGGGSGGGGSQVQLVQSGAEVKKPGSSVKVSCKASGGTFSGYTMNWVRQAPGQGLEWMGLINPYKGVSTYNGKFKDRVTITADKSTSTAYMELSSLRSEDTAVYYCARSGYYGDSDWYFDVWGQGTLVTVSSGGGGSQAGLTQPPAVSVAPGQTASITCGRDNIGSRSVHWYQQKPGQAPVLVVYDDSDRPAGIPERFSGSNYENTATLTISRVEAGDEADYYCQVWGITSDHVVFGGGTKLTVLAAAGGSGGGGSGGGTQVQLQQSGPGLVKPSQTLSLTCAISGDSVSSNRAAWNWIRQSPSRGLEWLGRTYYRSKWYNDYAQSLKSRITINPDTPKNQFSLQLNSVTPEDTAVYYCARDGQLGLDALDIWGQGTMVTVSSGGGGSGGGGSGGGGSQAGLTQPPAVSVAPGQTASITCGRDNIGSRSVHWYQQKPGQAPVLVVYDDSDRPAGIPERFSGSNYENTATLTISRVEAGDEADYYCQVWGITSDHVVFGGGTKLTVLGSLHHHHHH
notes: Trivalent: two sites for HER3, one for CD3; also called scDb-scFv; scDb3-43xhuU3-scFv3-43
In the case of B2, the EC50 [1] is reported as 4.2 nM, the EC50 [2] is reported as 13.2 nM and the EC50 [3] is reported as 0.0316 nM and 0.0314 nM. For the same binder, the “IL-2 release of PBMC with HER3-expressing MCF-7 cells (EC50)” value [4] was 0.29 nM, the “killing of MCF-7 cells by PBMC, MTT assay (EC50)” value [4] was 0.034 nM and the EC50 [5] was 0.81 nM.

B3: scFv 3-43 (scFv)
scFv: QVQLQQSGPGLVKPSQTLSLTCAISGDSVSSNRAAWNWIRQSPSRGLEWLGRTYYRSKWYNDYAQSLKSRITINPDTPKNQFSLQLNSVTPEDTAVYYCARDGQLGLDALDIWGQGTMVTVSSGGGGSGGGGSGGGGSQAGLTQPPAVSVAPGQTASITCGRDNIGSRSVHWYQQKPGQAPVLVVYDDSDRPAGIPERFSGSNYENTATLTISRVEAGDEADYYCQVWGITSDHVVFGGGTKLTVLG
B3: binds [6].

B4: IgG 2-35 (antibody, V domains shown)
VH: QMQLVQSGAEVKKPGESLKISCKGSGYSFTSYWIGWVRQMPGKGLEWMGIIYPGDSDTRYSPSFQGQVTISADKSISTAYLQWSSLKASDTAMYYCARLGRSGSYYNYGMDVWGQGTTVTVSS
VL: QAVVTQEPSFSVSPGGTVTLTCGLSSGSVSSSYYPSWYQQTSGQPPRTLIYSTDTRSSGVPDRFSGSILGDKAALTITGAQADDESDYYCMLYMGSGISVFGGGTKLAVL
notes: Anti-HER2 antibody found by phage display
B4 showed an EC50 (HER2-ECD protein) of roughly 1.5 nM.

B5: Db3-43xhu225-Ig (bispecific antibody, human IgG1, kappa)
light: QVQLQQSGPGLVKPSQTLSLTCAISGDSVSSNRAAWNWIRQSPSRGLEWLGRTYYRSKWYNDYAQSLKSRITINPDTPKNQFSLQLNSVTPEDTAVYYCARDGQLGLDALDIWGQGTMVTVSSGGGGSDIQLTQSPSFLSASVGDRVTITCRASQSIGTNIHWYQQKPGKAPKLLIKYASESISGVPSRFSGSGSGTEFTLTISSLQPEDFATYYCQQNNNWPTTFGAGTKLEIKRTVAAPSVFIFPPSDEQLKSGTASVVCLLNNFYPREAKVQWKVDNALQSGNSQESVTEQDSKDSTYSLSSTLTLSKADYEKHKVYACEVTHQGLSSPVTKSFNRGEC
heavy: EVQLVESGGGLVQPGGSLRLSCAASGFSLTNYGVHWVRQAPGKGLEWLGVIWSGGNTDYNTPFTSRFTISRDNSKNTLYLQMNSLRAEDTAVYYCARALTYYDYEFAYWGQGTTVTVSSGGGGSQAGLTQPPAVSVAPGQTASITCGRDNIGSRSVHWYQQKPGQAPVLVVYDDSDRPAGIPERFSGSNYENTATLTISRVEAGDEADYYCQVWGITSDHVVFGGGTKLTVLASTKGPSVFPLAPSSKSTSGGTAALGCLVKDYFPEPVTVSWNSGALTSGVHTFPAVLQSSGLYSLSSVVTVPSSSLGTQTYICNVNHKPSNTKVDKKVEPKSCDKTHTCPPCPAPPVAGPSVFLFPPKPKDTLMISRTPEVTCVVVDVSHEDPEVKFNWYVDGVEVHNAKTKPREEQYNSTYRVVSVLTVLHQDWLNGKEYKCKVSNKGLPSSIEKTISKAKGQPREPQVYTLPPSRDELTKNQVSLTCLVKGFYPSDIAVEWESNGQPENNYKTTPPVLDSDGSFFLYSKLTVDKSRWQQGNVFSCSVMHEALHNHYTQKSLSLSPGK
notes: Light chain VH3-43xVLhu225-CL, heavy chain VHhu225xVLhu3-43-CH1-CH2-CH3; two sites for EGFR and two for HER3; also called Db-Ig; bispecific and tetravalent diabody-Ig fusion protein
B5 gave an EC50 (EGFR on tumor cells [7]) of 0.047 nM, an EC50 [8] of 0.047 nM and an EC50 [9] of 0.26 nM. The EC50 [10] was 0.054 nM, the EC50 [11] was 0.85 nM and the EC50 (EGFR on tumor cells [12]) was 0.14 nM.
